Literature values in publication doi:10.1101/2020.11.23.394015.

Target: Glu89 (UniProt position 105, IDALNENKVLV)
Details: folded; closed-to-open EF loop (Tanford) transition

beta-lactoglobulin (BBL) (Bos taurus)
pKa: ~ 7.3
